Laboratory results taken from patent publication US20210147573A1 (DENALI THERAPEUTICS, published 2021).

How the values were obtained:
[1] = molecular target: mouse Rab10 (endogenous, brain and kidney) (mouse) (UniProt P61027); experiment: cell-based or functional assay
[2] = molecular target: mouse Rab10 (endogenous, brain and kidney) (UniProt P61027)
[3] = molecular target: HA-Rab10 (N-terminal HA-tagged Rab10 overexpressed in HEK293T cells; not phosphorylated / LRRK2 inhibitor A-treated lysate) (UniProt P61026)
[4] = molecular target: T1, HA-Rab8a phosphorylated at T72 (overexpressed with LRRK2 in HEK293T cells, DMSO-treated lysate) (UniProt P61006 1-204, phosphothreonine at Thr72 (numbered with reference to SEQ ID NO:124)); experiment: sandwich ELISA screening assay; OD ratio of DMSO lysate to LRRK2 inhibitor A lysate
T1 construct: mature; In cell lysate of HEK293T co-transfected with FLAG-LRRK2 or FLAG-LRRK2-R1441C; also called pT72-Rab8a; phospho-Rab8a; not shown: N-terminal HA (hemagglutinin) tag
T1 sequence (looked up): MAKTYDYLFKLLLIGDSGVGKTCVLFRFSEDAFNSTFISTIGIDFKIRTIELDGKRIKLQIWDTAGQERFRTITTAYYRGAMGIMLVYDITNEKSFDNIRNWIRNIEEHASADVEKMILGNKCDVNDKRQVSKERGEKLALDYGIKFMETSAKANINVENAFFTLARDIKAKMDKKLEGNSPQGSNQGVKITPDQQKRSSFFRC
Protocol: (§1) 96-well ELISA plates were coated with 10 μg/ml anti-rabbit IgG (Millipore) overnight at 4° C. Plates were washed with TBST (Tris Buffered Saline with Tween 20), and blocked with 2% BSA. Hybridoma supernatants were added in different dilutions, and incubated at room temperature for 2 hours. After TBST wash, cell lysates were then added at different protein concentration (0.08 mg/ml or 0.8 mg/ml). […] HRP conjugated anti-HA antibody (1:5000, CST #2999) was used for detection. TMB substrate was added and developed. Absorbance (OD) was measured at 650 nm using a plate reader.

[5] = molecular target: T2, HA-Rab8a (N-terminal HA-tagged full-length Rab8a overexpressed in HEK293T cells); not phosphorylated / LRRK2 … (UniProt P61006 1-204)
T2 construct: mature; also called overexpressed Rab8a protein; not shown: N-terminal HA (hemagglutinin) tag
T2 sequence (looked up): T1 sequence (looked up)
Protocol: as §1

[6] = molecular target: T1, HA-Rab8a phosphorylated at T72 …
[7] = molecular target: endogenous phosphorylated human Rab8a protein (pT72-Rab8a) (human) (UniProt P61006); experiment: western blot, human PBMC; band intensity normalized to actin; mean ± SEM
[8] = molecular target: T3, recombinant Rab10 protein (Abnova, H00010890-P01) (UniProt P61026 1-200); experiment: sandwich ELISA with recombinant Rab proteins; same screening and selection strategy used for subclone supernatants
T3 construct: Bought
T3 sequence (looked up): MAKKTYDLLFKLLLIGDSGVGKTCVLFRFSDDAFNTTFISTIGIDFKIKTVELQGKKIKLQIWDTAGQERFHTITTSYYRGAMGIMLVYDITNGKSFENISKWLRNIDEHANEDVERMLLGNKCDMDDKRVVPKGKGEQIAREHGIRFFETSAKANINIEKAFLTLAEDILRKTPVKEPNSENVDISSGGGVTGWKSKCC

[9] = molecular target: T4, endogenously expressed human Rab10 protein (total Rab10, A549 cell lysates) (human, UniProt P61026 1-200); experiment: sandwich ELISA with lysates of wild-type A549 cells, Rab10 KO A549 lysates as negative controls
T4 construct: A549 is stated to be a human lung epithelial cell line
T4 sequence: T3 sequence (looked up)

[10] = molecular target: T5, HA-Rab10 (N-terminal HA-tagged Rab10 overexpressed in HEK293T cells); not phosphorylated / LRRK2 inhibitor … (UniProt P61026 1-200); experiment: sandwich ELISA with cell lysates; same screening and selection strategy used for subclone supernatants
T5 construct: mature; also called overexpressed Rab10 protein; not shown: N-terminal HA (hemagglutinin) tag
T5 sequence (looked up): T3 sequence (looked up)

Work on “G2019S-LRRK2 (BAC transgene in G2019S-Tg mice, Jackson Laboratories #018785)” yielded an increase in pT73-Rab10 level in brain and kidney of G2019S transgenic mice (western blot, normalized to actin) [1] of 20 to 30%.

For “mouse LRRK2 (endogenous; absent in LRRK2 knockout mice, Jackson Lab #016121)”, the “reduction of pRab10 level in LRRK2 KO mouse kidney (western blot, normalized to actin)” value [2] was “more than 90% reduction of pRab10 level” and the “reduction of pT73-Rab10 level in LRRK2 KO mouse brain (western blot, normalized to actin)” value [2] was 30-40% reduction for pT73-Rab10 level.

With LRRK2 variant R1441G the “phosphorylation of Rab10 (pT73-Rab10 western blot signal normalized to total Rab10, against wild-type LRRK2)” value [3] was “demonstrated significantly increased phosphorylation levels of Rab10”.

“LRRK2 variant G2019S (HEK293T expression)” was tested, and the “phosphorylation of Rab10 (pT73-Rab10 western blot signal normalized to total Rab10, against wild-type LRRK2)” value [3] was “demonstrated significantly increased phosphorylation levels of Rab10”.

For LRRK2 variant I2020T, the “phosphorylation of Rab10 (pT73-Rab10 western blot signal normalized to total Rab10, against wild-type LRRK2)” value [3] was “demonstrated significantly increased phosphorylation levels of Rab10”.

For LRRK2 variant G2385R, the “phosphorylation of Rab10 (pT73-Rab10 western blot signal normalized to total Rab10, against wild-type LRRK2)” value [3] was “demonstrated significantly increased phosphorylation levels of Rab10”.

For LRRK2 variant Y1699C, the “phosphorylation of Rab10 (pT73-Rab10 western blot signal normalized to total Rab10, against wild-type LRRK2)” value [3] was “demonstrated significantly increased phosphorylation levels of Rab10”.

B1: anti-pT72-Rab8a monoclonal antibody clone 24-3 (antibody, V domains shown)
VH: QSVEESGGRLVTPGTPLTLTCTVSGFSLSSYYITWVRQAPGKGREWLGIMNAGTTVHYANWVKGRFAISKTSTTVDLKITSPTTEDTATYFCARARNSVWMDIWGPGTLVTVSL
VL: AAVLTQTPSPVSGAVGGSVTVNCQSDKSVYRDNLAWYQQKPGQPPKLLIYKASTLASGVPSRFRGSGAGTQFTLTISDVQCDDAATYFCAGGYSSDSDTAFGGGTEVVVK
notes: Rabbit monoclonal; also called anti-phospho Rab8a clone 24-3
B1 was tested, and the “Ratio (DMSO/LRRK2 inhibitor A)” value [4] was 5.19 and the “OD A650 (LRRK2 inhibitor A)” value [5] was 0.286 OD A650.

B2: anti-pT72-Rab8a monoclonal antibody clone 20 (antibody, V domains shown)
VH: QSVEESGGRLVTPGTPLTLTCTVSGFSLSSYAMGWVRQAPGEGLEYFGIINTGGSAYYTNWAKGRFTISRTSTTVHLKITSPTTEDTATYFCARIAGDTRYYGMDPWGPGTLVTVSS
VL: AAVLTQTPSPVSAAVGGTVSISCQSSKSVRNNNYLAWYQQKPGQPPKLLIYGASTLASGVPSRFKGSGSGTQFTLTISDVQCDDAATYYCAGGYDGGSDDAFGGGTEVVVK
notes: Rabbit monoclonal; also called anti-phospho Rab8a clone 20; anti-phosphorylated T72-Rab8a monoclonal antibody (clone 20)
With B2 the Ratio (DMSO/LRRK2 inhibitor A) [4] was 8.35, the OD A650 (DMSO) [6] was 0.827 OD A650 and the Ratio of DMSO/LRRK2 inhibitor A [7] was 3.5. For the same molecule, the “OD A650 (LRRK2 inhibitor A)” value [5] was 0.099 OD A650.

B3: anti-pT72-Rab8a monoclonal antibody clone 170-1 (antibody, V domains shown)
VH: QSLEESGGDLVKPEGSPTLTCTASGFSFSSSYWICWVRQAPGKGLEWIACIYGGSSGTIYYASWAKGRFTISKTSSTTVTLQMTSLTAADTATYFCARRAAGGYGGRLDLWGQGTLVTVSS
VL: AQVMTQTPASVSAAVGGTVTINCQSSESVLNNNYLAWYQQKSGQPPKLLIWTASSLASGVPSRFSGSGSGTQFTLTISDVQCDDAATYYCAGGYYIGSDIFAFGGGTEVVVR
notes: Rabbit monoclonal; also called anti-phospho Rab8a clone 170-1
In the case of B3, the “Ratio (DMSO/LRRK2 inhibitor A)” value [4] is reported as 6.03 and the “OD A650 (LRRK2 inhibitor A)” value [5] is reported as 0.173 OD A650.

B4: anti-total Rab10 monoclonal antibody Clone 10-3 (antibody, V domains shown)
VH: QSVEESGGRLVTPGTPLTLTCTASGFSLSSYYMNWVRQAPGKGLEWIGFISSGGRTYYANWAKGRFTISKTSTTVDLKITSPTTEDMATYFCARAIYSSGNSAMAIWGPGTLVTVSL
VL: AQVLTQTPSSVSAAVGGTVTISCQASQSVYDNSNLAWYQQKPGQPPELLIYYTSTLASGVPSRFSGSGSGTQFTLTISGVQCDDAAIYYCLGAFTCSSGDCNVFGGGTEVVVK
notes: Rabbit monoclonal from rabbit E8473 (Peptide A immunization); hybridoma supernatant; also called anti-total Rab10 clone 10-3
B4: binds [8]; binds [9]; binds [10].
